± gives the uncertainty stated by the source.
Experiment: amyloid nucleation score (Sup35N fusion, yeast selection) (log enrichment); library NNK2; higher = more nucleation; inactive = no reads after selection
Method in brief: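 The nucleation score is the DiMSum log enrichment of output over input reads, centred on the mode score of non-aggregating sequences. Only sequences with 100 or more input reads were scored, using Illumina sequencing of input and output plasmid inserts. Psi-negative yeast expressing Sup35N fused to peptides of 20 random codons were induced 24 hours with 100 μM copper sulfate and grown 7 days at 30°C on medium lacking adenine and uracil.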

Substance | amyloid nucleation score
RCKWVRGVSRMPNHWN | 0.779 ± 0.4
DLQSRDYPMADIVHIGIQRH | -0.754 ± 0.34
MARTISAGSVLFNLGSRIWH | inactive
PYRPHYAAVLRLAR | 0.08 ± 0.33
EYTIFTDLLLYDFKWLEYVW | 0.561 ± 0.62
YYAGLVTSDWNTRSLGGMCE | -0.506 ± 1
HGLEVVQMASSLELQARKKA | 0.049 ± 0.34
LYLSFKGRREFFVIYLKFHS | inactive
NACYRFILISSMVRLSFSVW | 0.389 ± 0.8
CYVSFCKGA | 0.049 ± 0.76
MLLVVYGQVRTISLLRRRSS | -0.243 ± 0.74
HMEKWCSSTMSRLLSVQLAK | 0.771 ± 0.29
KCLSRTQTYACSP | 1.78 ± 0.21
RPPSIYC | -0.477 ± 0.49
ISRIIVPDSRLAYGEWFEIV | 1.53 ± 0.58
GYNGMGRCINWVRKYRWLLW | 5.355 ± 0.033
DGGVYTNINIFGCLVGFGGW | 8.006 ± 0.026
FDIPCSFVPVYHIKAFLCRM | -0.353 ± 0.79
YLYSPLVMSSHYMLFT | 5.125 ± 0.048
KLTFTVMYTFCKVLSRDVAC | 3.1 ± 0.1
YWSRRAYCFCSAFFYNTGFF | 1.53 ± 0.19
NPYTCMKTHYNRRNI | 3.41 ± 0.15
DWWSDDSRLGNLLRFSKRSF | -0.636 ± 0.76
SMMTVADP | -0.529 ± 0.79
TYGHDKLRVSNIEHQLPGRA | 0.306 ± 0.64
GVKFQAAEAGPPGTYGTLGS | -0.031 ± 0.63

Substance | amyloid nucleation score
KNSIDQVTWTCNRYLKLVLS | -0.402 ± 0.39
GGLMRTSPNS | -0.108 ± 1.1
HTSVFFRKKPGSCISRSLSL | inactive
PASISLNFS | 1.58 ± 0.22
RTHCSMSYQSRVVVDWLLQK | 4.18 ± 0.087
VFACLNVLSLMNEDFFVMSD | -0.708 ± 0.54
CISKLKFLGCRVE | inactive
ADLSRRLGMFVVLCLGGWAW | -0.326 ± 0.63
YMMMIDL | -1.26 ± 0.64
SIFLREDVVFSDLLRWFR | 5.572 ± 0.045
TGQSKDNQDSNMGVICLFYS | 4.389 ± 0.04
VVVNNGTGKVPFDDM | -0.952 ± 0.42
SLLGRRIFWLCHEFMSSSLV | 0.21 ± 1
HDGVNCSYRSDSIYIVENTH | inactive
SVVVDIKGVDWVVRVLVGKR | -0.484 ± 0.65
VLSTWWVSYAGTVFVRSEGT | 3.58 ± 0.14
RTSFRNVMTIMTSPHVVTFI | -0.149 ± 0.4
QYWTNRCKDWERVSRKPLKL | inactive
SVSGIGWFGGEQHAWS | -0.531 ± 0.79
YYTWCYKKVFGNHWRQDFD | -1.23 ± 0.64
LCNMHIMRFNM | -1.07 ± 1.1
SSGGIDQFGRESISHHWLC | -0.858 ± 0.76
LMRFSDVDY | inactive
TGELSAQHKASTYYCYCWLF | 4.43 ± 0.076
GPLFPNFKSLGGEYRRH | 0.325 ± 0.42
FTWLRPRGFS | -0.676 ± 0.27

Substance | amyloid nucleation score
NTANKFSLFKTGMVWVSFFT | 2.88 ± 0.099
STRTSADRSFIIMVWCNIDL | 3.62 ± 0.081
YRRCSRGNPGCDLAGFGRVV | -0.08 ± 0.74
WSKEFEIGSNHSKSNTRCGR | 0.244 ± 0.46
HDVFVTYTTLLITARLMRRP | 1.86 ± 0.27
VPSQRNWFC | 0.007 ± 0.63
KPAERLFKCRSTE | 0.014 ± 0.49
WLPMYL | 0.194 ± 0.26
ALCRGW | -0.689 ± 0.41
ASAAAHVRIYQMIFVFERQL | 0.001 ± 0.48
ICFIVSSFRY | 2.58 ± 0.23
MVSVKSCYYVSVSVLSRFHF | 0.065 ± 0.36
TLFIMC | 0.074 ± 0.54
LRVPIR | 0.077 ± 0.28
AFESKAPGRSSLVGIACSYS | -0.48 ± 0.48
HYCRHLLVLHSSKYARSHSS | -0.338 ± 0.37
PCGLIV | 0.22 ± 0.63
EKGNVGSQANTLVRCSGLTW | 1.17 ± 0.21
PWRRISMVVSWQYIEFIKYL | -0.832 ± 0.78
IRLPPRRAFHNEFFVDLHRG | -1.91 ± 0.76
GCLPHGY | 0.663 ± 0.62
KWFLGCRVDHRMRVRMCLQ | -0.292 ± 0.54
KIWDCSMYTF | -1.07 ± 0.55
ESDLVLGRVR | 0.69 ± 0.49
CFDPGTNRCLPWAVGVGELG | 0.959 ± 0.74
KEMAFVRGMTARPRYNVNSE | 1.22 ± 0.29

Substance | amyloid nucleation score
ERSIARSFRLAADFCSYSRR | inactive
WYWHPCTIFL | 5.46 ± 0.038
LQVIHGSPRLRLYDYQRNNF | 7.482 ± 0.04
YFLALAYRAVPLLWYRPRGL | 0.751 ± 0.38
LTSGNSMIVVS | 0.15 ± 0.18
WLNHYAQLIHRARGHVWNMY | -0.685 ± 0.63
KVSHAWM | 0.704 ± 0.53
RRNMVSWVSDDEQFSDKPLA | 0.121 ± 0.4
FEFVYFVRSIG | -0.129 ± 0.5
AVYYGSMWLGQGGIVPW | 1.93 ± 0.15
ASSNLNDTYITIDADSVHRR | 0.033 ± 0.49
KVTSRTTGMIVSFFMPCLEM | 5.97 ± 0.072
GRLSISDYIY | 1.02 ± 0.61
SMYSSASMQWSDRFNILYEV | -0.291 ± 0.31
IAVYTYLAGAWKHLETLAFP | 3.8 ± 0.1
TVLGRGLILWDVGGLSE | -0.906 ± 0.34
YLIDFRTRWIRISKA | -0.695 ± 0.61
SRTAWVDLPDCWQVVKFGSV | -0.025 ± 1.1
FMFPGRRPFPIAMWELRFFS | -0.427 ± 1.1
FREVRRF | 0.631 ± 0.41
CHNNFVYRGNAPRRHLEQGV | 0.062 ± 0.77
DSLYWSRCSSFRTKQEVSDM | 0.907 ± 0.3
RLGPSSWSWHL | 1.52 ± 0.29
MRYRIICNFCHDVRKESLLK | -0.246 ± 0.8
LRREGTYIRPCKDMYFGDSC | inactive
KSSNHITRFRSHSMETSRMV | inactive

Substance | amyloid nucleation score
TLGMYFFVSMLSLLVSVNGF | -0.427 ± 1.1
VHCSVGNINKDVSCTVVRP | 0.892 ± 0.47
TNSALGSMVYELGRPLVWFF | inactive
KIKPLIIKNMCGNNTGPGIQ | inactive
YRHDVWLEE | 0.016 ± 0.23
KSVFYIWFSHRVSVVAVRQL | 5.13 ± 0.093
GTMQFIVICNSDVFVSWLPN | 7.253 ± 0.071
SRKPSILNLRLALVSG | 0.43 ± 0.33
EDSPPFWGVVWPFTRNNDRK | 1.11 ± 0.52
YLYKLFGDDFGDWFLICFFR | inactive
KHCMCYLLWNI | -0.422 ± 1.1
WSTAFSKLNSSRKSD | -0.582 ± 0.76
PHCRSLETH | -0.083 ± 0.33
NYYQR | 0.025 ± 1.1
KMYYGSKNTKSDLARTYGTL | 1.61 ± 0.44
GMYNLSSGYRCERVGVAENI | -0.513 ± 0.3
YGGDLYLIFDLLDRVILL | inactive
FLNESGSFWCSGFLIWVMRM | -0.568 ± 0.76
CVGNNMCSGKNF | inactive
RLKVIFRSLFHLLRAVRGSH | -1.36 ± 0.75
SYCHCASGPFSLNPYSLLVC | 0.716 ± 0.66
GFHIGDVCNYGVVFSSVARL | 5.863 ± 0.05

Reference: the supplement of paper PMC12042874
